The results in this text go back to the supplement of paper PMC9170038.

The test system of this data set is MS2 coat protein. Put plainly: apparent KD of MS2 coat protein; designed switch direction (-1 OFF switch, 1 ON switch): -1; higher = weaker reporter binding. An outline of the steps:
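Designed RNA switches were transcribed on Illumina chips by stalled E. coli RNA polymerase and titrated with SNAP-549-labelled MS2 coat protein from 0.7 or 1.5 nM, doubling to 3 µM. Step length ran from 0.8–1.5 h at the lowest concentration to 10–20 min at the highest. The apparent KD is the median over clusters for each design, from curve-fitted normalised cluster fluorescence.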

[1] abbreviates: Eterna round: R95, input ligand: FMN 200 uM.
Setting [2] is: Eterna round: R95, input ligand: microRNA oligo, concentration not stated.
Where [3] appears, read: Eterna round: R95, input ligand: none.
Setting [4] is: input ligand: microRNA oligo, concentration not stated.

As to “AAGAGUGCAGGAUAUACUUGAUAGGGUAAGGUGAGUGAGGGACAUGAGGAUCACCCAUGUAGAAGGGCAGAGAG [JR_Exclu2_Sub058] (puzzle: Exclusion 2)”, the “apparent KD of MS2 coat protein” value under setting [1] was 25.8 nM, the “apparent KD of MS2 coat protein” value under setting [2] stood at 33.4 nM and the “apparent KD of MS2 coat protein” value under setting [3] came to 26.3 nM.
As to “AAGAUGUCAGGAUAUUAGUAGUAAAUAAAUAAAAUUAUUACUGAGAAGGGACAUGAGGAUCACCCAUGUGCCUU [Salish 062 v10] (Eterna round: R97, puzzle: Exclusion 4)”, the “apparent KD of MS2 coat protein” value runs as follows: (input ligand: FMN 200 uM) 16.4 nM; (input ligand: none) 16.9 nM.
On the same counts, the results for “AAGAUGUGAGGAUAUCACGAAGGCGUCAAACUGACGCCUUCUGAGAAGGCACAUGAGGAUCACCCAUGUCCAAA [EX4 A.23] (Eterna round: R97, puzzle: Exclusion 4)” are 325 nM and 58.6 nM.
Taken in the same sequence, the figures for “AAGCAUGGAGGAUAUACAUGAGGAUCACCCAUGUCCAGGUCCACGGGUAUUUUGUUGCGUAGAAGGCCAUGUAG [Eternabot (L2) Solution 21] (Eterna round: R97, puzzle: Exclusion 3)” were 242 nM and 46.8 nM.
As for “AAGCAUUGCCAAAGGUAGUGCUUUACAUGAGGAUCACCCAUGUAGGAUAUGGUAGGCAAAGCUUACCAGAAGGACAUGAUAAUU [Mat - Exclusion NG 3 - Mod of JL - D13] (Eterna round: R96, puzzle: Exclusion NG 3)”, the “apparent KD of MS2 coat protein” value was determined as 151 nM (input ligand: FMN 200 uM), 47.4 nM under setting [4] and 47.9 nM (input ligand: none).
With “AAGCCACAUGAGGAUCACCCAUGUCAGGAUAUCUCGAAAAGCAUAGAAAUAUGCGAAGAGAGAAGGGACUACUC [ChP Ext 10-04-2015 #4] (puzzle: Exclusion 1)”, the “apparent KD of MS2 coat protein” value under setting [2] worked out at 42.7 nM.
Consider “AAGCCCUGAGGAUAUCCCAACUCGCACAUGAGGAUCACCCAUGUCCUCCUCCGGGCUUCGGGAGAAGGCAGGUCUC [Megrez-7.8] (Eterna round: R97, puzzle: Exclusion 5)”, for which the “apparent KD of MS2 coat protein” value worked out at 186 nM (input ligand: FMN 200 uM) and 25.7 nM (input ligand: none).
In the case of “AAGGAUAGAGGAUAUACAUAGAUACAGAUUCAUGUGGAACUACAUGAGGAUCACCCAUGUAGAAGGCUAUCCUA [Fiskers Ex 2 - 9] (puzzle: Exclusion 2)”, the “apparent KD of MS2 coat protein” value under setting [2] stood at 35.9 nM.
Same read-out and setting: the value for “AAGGAUAGAGGAUAUAUAUAGAUACAGAUUCAUGUAGAACUACAUGAGGAUCACCCAUGUAGAAGGCUAUCCUA [Fiskers Ex 2 - 10] (puzzle: Exclusion 2)” was 14.7 nM.
For “AAGGGUGCUUUCGGAACGACAUGAGGAUCACCCAUGUAGACUGAGGAUAUCUACUUCUAAGGACGGGAGAAGGCAGUGUAAUGU [Ex NG3 #70] (Eterna round: R96, puzzle: Exclusion NG 3)”, the “apparent KD of MS2 coat protein” value (input ligand: FMN 200 uM) worked out at 44.5 nM, the “apparent KD of MS2 coat protein” value under setting [4] turned out to be 29 nM and the “apparent KD of MS2 coat protein” value (input ligand: none) came to 39.8 nM.
In the case of “AAGGUGUUAGGAUAUCGAAGGUUGUGGCAGGCGGGAAUUUGCGAGAAGGAACAUGAGGAUCACCCAUGUAAAAU [JR_Exclu4_Sub042] (puzzle: Exclusion 4)”, the “apparent KD of MS2 coat protein” value under setting [2] stood at 25 nM.
For the sequence “AAGUAACAUGAGGAUCACCCAUGUUAGGAUAUCUCGGCCACAGGAUCCCUGUGAAGCCAGAGAAGGAGCGGGUG [Ceraso] (Eterna round: R97, puzzle: Exclusion 1)”, the “apparent KD of MS2 coat protein” value (input ligand: FMN 200 uM) came out at 169 nM and the “apparent KD of MS2 coat protein” value (input ligand: none) is 202 nM.
On the same counts, the results for “AAGUAGGAUGUUAGGAUAUCGCCCUCGCAAUAGGGCGAGAAGGGACAUGAGGAUCACCCAUGUAGGCGAUAGAA [Laedesed] (Eterna round: R97, puzzle: Brourd's mod of Exclusion 4)” are 29.3 nM and 16.9 nM.
Taken in the same sequence, the figures for “AAGUAGUGACAGGAUAUUGUUCAUGAUAUGGAACAAGAAGGGUUAACAUGAGGAUCACCCAUGUAUCCUCCGUG [Eternabot (L2) Solution 14] (Eterna round: R97, puzzle: Exclusion 6)” were 401 nM and 44.9 nM.
“AAGUAUCAUGUAGGAUAUGCUAACCGAACGUUAGCAGAAGGACAUGAGGAUCACCCAUGUUCUCAUCUGUAAGAACAGAUGUCU [Ex NG1 #6] (Eterna round: R96, puzzle: Exclusion NG 1)”: the “apparent KD of MS2 coat protein” value reads like this: (input ligand: FMN 200 uM) 27.9 nM; under setting [4], 12.6 nM; (input ligand: none) 15.5 nM.
On to “AAUAACAAGCUGAUCCUAAACAUGAGGAUCACCCAUGUGCUCGUCUUGUAAAGUACUAUCACGAAAGUGAUAGUACA [MOD7 of my MOD of Eli's v1-59 (mutation at 11 A to U)] (Eterna round: R97, puzzle: Sensor, turn-off variant 1)”, for which the “apparent KD of MS2 coat protein” value (input ligand: FMN 200 uM) was determined as 118 nM and the “apparent KD of MS2 coat protein” value (input ligand: none) turned out to be 142 nM.
With “AAUAACAGAGGAUAUACUAUUUUAUGUAUUUAUUAUUUUAAACAUGAGGAUCACCCAUGUAGAAGGCUGAUUAA [JMF 42] (puzzle: Exclusion 2)”, under setting [2], the “apparent KD of MS2 coat protein” value came to 30.8 nM.
Take “AAUAACAGAGGAUAUACUGUUUUAUGUAUUUAUUAUUUUGAACAUGAGGAUCACCCAUGUAGAAGGCUGAUUAA [JMF 48] (puzzle: Exclusion 2)”: under setting [2], the “apparent KD of MS2 coat protein” value was 29.6 nM.
With “AAUAACUGAGGAUAUACUAUAAUAUGAAUAAAAUAAAUAAAACAUGAGGAUCACCCAUGUAGAAGGCAGAAUAA [JMF's Not so obvious solution 9] (puzzle: Exclusion 2)”, the “apparent KD of MS2 coat protein” value turned out to be 23.2 nM under setting [1], 17.8 nM under setting [2] and 24.1 nM under setting [3].
Take “AAUAAGAAGUAAGGAUAUCUGAAAGGAAGUGUAAGAGAAGGUACGGUGACGUCAGAACGACAUGAGGAUCACCCAUGUAAAGAA [PowerStrip EXNG 1.11] (Eterna round: R96, puzzle: Exclusion NG 1)”: the “apparent KD of MS2 coat protein” value worked out at 79 nM (input ligand: FMN 200 uM), 69.6 nM under setting [4] and 93.9 nM (input ligand: none).
Consider “AAUAAGCUAGGAUAUACAUGAGGAUCACCCAUGUGAGGGCACGGCCGGCGCGGGCCCGGUAGAAGGAGUCAUAA [Exc;s3-VI] (puzzle: Exclusion 3)”, for which the “apparent KD of MS2 coat protein” value under setting [2] turned out to be 26.4 nM.
Turning to “AAUAAGGGAGGAUAUACAUGAGGAUCACCCAUGUUUGUAAUUUAAUUCGGGAGUAUUAGUAGAAGGCCCAAUAA [lam1] (Eterna round: R97, puzzle: Exclusion 3)”, the “apparent KD of MS2 coat protein” value is, setting by setting: (input ligand: FMN 200 uM) 278 nM; (input ligand: none) 59.5 nM.
Take “AAUAAUUGUGACUUGGGUGACAUGAGGAUCACCCAUGUCACAAGCUUGUUGCUCGCCUUGUAAUUAACCCAUGUCAC [LRO Sensor-off var1-27 mod of Stov1-13-A1 by Brourd] (Eterna round: R97, puzzle: Sensor, turn-off variant 1)”: the “apparent KD of MS2 coat protein” value by setting is: (input ligand: FMN 200 uM) 22.2 nM; (input ligand: none) 20.8 nM.
“AAUACAAGCUAUUGAUCCCACAUGAGGAUCACCCAUGUACCUGGCCGUGAGACCAGGUUUACAAUAGCUCGUCUUAU [Sensor-V1 #48] (Eterna round: R97, puzzle: Sensor, turn-off variant 1)”: the “apparent KD of MS2 coat protein” value runs as follows: (input ligand: FMN 200 uM) 107 nM; (input ligand: none) 93.8 nM.
